Experimental data published in the nanobody polyreactivity screen of Harvey et al. (2022).

Assay: yeast display, Sf9 membrane polyspecificity reagent, FACS + sequencing; frameworks hold sequencing errors
Summary of the method: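 Genes from sorted yeast were amplified by colony PCR, read by MiSeq 2 × 250 sequencing and filtered on CDR length. These cells carried a synthetic nanobody library in Saccharomyces cerevisiae BJ5465 and were sorted by FACS into low and high (top ~1%) gates on anti-HA and streptavidin fluorescence. Polyreactivity is labelled according to the gate of origin.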

| Sequence | polyreactivity (PSR sort gate) |
| --- | --- |
| QVQLVESGGGLVQAGGRLRLSCAASGRIFYLNAMGWYRQAPGKERELVAAINTSGDSSYYADSVKGRFTISRDNAKNTVYLQMNSLKPEDTAVYYCAAYVIGPDQFIYDYWGQGTQVTVSS | low polyreactivity |
| QVQLVESGGGLVQAGGRLRLSCAASGRIFYYNAMGWYRQAPGKERELVATITGSGGSTYYADSVKGRFTISRDIAKNTVYLQMNSLKPEDTAVYYCAKRIYRYQYRPENYWGQGTQVTVSS | low polyreactivity |
| QVQLVESGGGLVQAGGRLRLSCAASGRSYPPYAMGWYREAPGKERELLAAISYSGGSTYYADSVTGRFTISRDNAKNPVYLQMNSLKPEDTSVFYCNKDISREVGIRMDDWGQGTQVTVSS | high polyreactivity |
| QVQLVESGGGLVQAGGRLRLSCAASGRTFGVYVMGWYRQAPGKERELVAAISSSGGLTYYADSVKGRFTISRDNAKNTVYLQMNSMKPEDTAVYYCNAVRRREERDGPPNPMDYWGQGTQVTVSS | high polyreactivity |
| QVQLVESGGGLVQAGGRLRLSCAASGRTFNYYAMGWYRQAPGKERELVATISYNGASTYYADSVKGRFTISRDNAKNTVYLQMNSLKPEDTAVYYCAAGYLWRGRLGNWGQGTQVTVSS | high polyreactivity |
| QVQLVESGGGLVQAGGRLRLSCAASGRTFPLYAMGWYRQAPGKERELVAAISSSGGNTYYADSVKGRFTISRDNAKNTVYLQMNSLIPEETAVYYCNADVSTNSDRLQLDYWGQGTQVTVSS | low polyreactivity |
| QVQLVESGGGLVQAGGRLRLSCAASGRTFTYFAMGWYRKAPGKERELVAAISWDDDSTYYADSVKGRFTISRDYAKNTVYLQMNSLKPEDTAVYYCAASYYRQSGEYDYWGQGTQVTVSS | low polyreactivity |
| QVQLVESGGGLVQAGGRLRLSCAASGRTFYVYAMGWYRQAPGKERELVAAISWTGGSTYYADSVKGRFTISRDHAKNTVYLQMNSLKPEDTAVYDCAVDVYRRDYVAYEYWGQGTQVTVSS | high polyreactivity |
| QVQLVESGGGLVQAGGRLRLSCAASGRTIVQNAMVWYRHDPGKERALVAAITSSGGRTYYADSVKGRFTISRDNAKNTVYLQMNSLKPEDTAVYYGAVTLRRGYDYWGQGTQVTVSS | high polyreactivity |
| QVQLVESGGGLVQAGGRLRLSCAASGSIFAYYAMGSYRQAPGKERELVAAISSSGGSTTYADSVKGRFTISRDNAKYTVYLQMNSLKPDDTAVYYCNAAWRRSRYYNWGQGTQVTVSS | high polyreactivity |
| QVQLVESGGGLVQAGGRLRLSCAASGSIFDENTMGWYRQAPGKERELVAAITYSGTSTYYADTVKGRFTISRDNAKNTVYLQMNSLKPEDTAVYYCAAEQWRYDGSFTGYGYWGQGTQVTVSS | low polyreactivity |
| QVQLVESGGGLVQAGGRLRLSCAASGSIFGTNAMGWYRQAPGKERELVAAISSSGTSTYYADSVKGRFTISRDNAKNTVYLQMNSLKPEDTAVYYCAAATNWGGEYWGQGTQVTVSS | high polyreactivity |
| QVQLVESGGGLVQAGGRLRLSCAASGSIFPYYAMGWDRQAPGKERELVASINQSDGTRYYADSVKGRFTISRDNAKNTVYLQMNSLKPEDTAVYYCAADTTLQAFIRYRPMGSYDSWGQGTQVTVSS | low polyreactivity |
| QVQLVESGGGLVQAGGRLRLSCAASGSIFPYYVMGWYRQAPGKERELVAAISTSDGSTYADSVKGRFTISRDNAKNTVYLQMNSLKPEDTAVYYCAVANVYYVGYDYWGQGTRVTVSS | low polyreactivity |
| QVQLVESGGGLVQAGGRLRLSCAASGSSSTPYTMGWYRPAPGKERELVAAISWIGDTTSYADSVKGRFTISRDNAKNTVYLQMNSLKPEDTAVYYCNAEHRGYDYWGHGTQVTVSS | low polyreactivity |
| QVQLVESGGGLVQAGGRLRLSCAASGSTFFIYAMRCFRQAPGKERELVAAISSRGGRTYYADSVKGRFTISRDNAKNTVYLQMNSLKPEDTAVYYCYFLIYSKGQAFDYWGQGTQVSVSS | high polyreactivity |
| QVQLVESGGGLVQAGGRLRLSCAASGSTFGAYAMGWYRQAPGKERELVAAIRGSGAGTYYADSVKGRFTISRDNAKNTVYLQMNSLKPEDTAVYYCNTANLRSLGWTFRRYSYEYWGQGTQVTVSS | high polyreactivity |
| QVQLVESGGGLVQAGGRLRLSCAASGSTFLVYAMGWYRQAPGKERELVAVIRWRDGSTYYADSVKGRFTISRDNAKNTVYLQMNSLKPEDTAGYYCAAVYWGEEYEYWGQGTQVTVSS | low polyreactivity |
| QVQLVESGGGLVQAGGRLRLSCAASGSTFRLYAMGRYRQAPGKERELVAAIRGSGGSTYYADSVKGRFTISRDNAKNTVYLQMNSMKPEDNAVYYCAARVVVARRSYVGYGYWGQGTQVTVSS | high polyreactivity |
| QVQLVESGGGLVQAGGRLRLSCAASGSTFVKNTMGWYIQPPGKERELVAAISSRGGSTYYADSVKGRFTISRDNEKNTVYFQMNSLKPEDTAVYYCAKDGRVSRDFDYWGQGTQVTVSS | low polyreactivity |
| QVQLVESGGGLVQAGGRLRLSCAASGSTFVRYAMGWYRQAPGKERELVAAISSSGATTYYADSVKGRFTISRDNAKNTVYLQMNSLKPEDTAVYYCAKYGRATRGLDNYWGQGTQVTVSS | high polyreactivity |
| QVQLVESGGGLVQAGGRLRLSCAASGSTFYQYAMGWYRQAPGKERELVAAISKSGGSTYYADSVKGRFTISRDNAKNTVYLQMNSLKPEDTAVYYCATRWIKGRKMVYWGQGTQVTVSS | high polyreactivity |

| Sequence | polyreactivity (PSR sort gate) |
| --- | --- |
| QVQLVESGGGLVQAGGRLRLSCAASGSTFYRYAMGMYRPAPGKERELVAAINRSGVTTYYADSVKGRFTISRDNAKNTVYLQMNSLKPEDTAVYYCAAVLGRGLDYYYLGQGTQVTVSS | high polyreactivity |
| QVQLVESGGGLVQAGGRLRLSCAASGSTIRRYAMRWYRQAPGKERELVAAIRQRGTSTYYADSVKGRFTISRDNAKNTVYLQMNSLKPEDTAVYYCAADSYSSRGNYWGQGTQVTVSS | high polyreactivity |
| QVQLVESGGGLVQAGGRLRLSCAASGTRYYAMGWYRQAPGNERELVAGIRWRDGGTYYADSVKGRFTISRDNAKNTVYLQMNSLKPEDTAVYYCNAAQSVELGYDYWGQGTQVTVSS | high polyreactivity |
| QVQLVESGGGLVQAGGRLRLSCAASGTTFVYYAMGWYRQAPGKERELVAAITASGGRTYYADSVKGRFTISRDNSKNTVYLEMNSLKPDDTAVYYCNARARKSIRVGGYNYWGQGSQVTVSS | high polyreactivity |
| QVQLVESGGGLVQAGGRLRLSCAASVFIFGIYASGWYRQAPGKDRELVAAITWDTGSTYYADSVKGRFTISRDNAKNTVYLQMNRLKPEDTAVYYRAVDGWDLTYYDSYYSWGQGTQVTVSS | high polyreactivity |
| QVQLVESGGGLVQAGGRLRLSCAASVGTFRPYAMGWYRQAPGKERELVAAISYTGSTYYADSVKGRFTISRDNAKNTVYLQMNSLKPADTAVYYCAKDFWYPPRFDYWGHGTQVTVSS | low polyreactivity |
| QVQLVESGGGLVQAGGRLRLSCAATGFTFTYYPMGWYRQATGKETEFVAAITWNSGTTYYADSVKGRFTISRDNAKNTVYLQMISLKPEDTAVYYCNALWHRQRWSRGDYWRQGTQVTVSS | high polyreactivity |
| QVQLVESGGGLVQAGGRLRLSCASSGGTLSRYAMGWYRQAPGKERELVAAINWIGGRTSYADSVKGRFTISRDNAKNTVYLQMKSLKPEDTAVYYCAAQYYYAPPWRKYDYWGQGTQVTVSS | high polyreactivity |
| QVQLVESGGGLVQAGGRLRLSCASTGLTLHGNAMGWYRQAPGKERELVATISSSGGSTFYADSVKGRFTISRDNAKNTDYLQMNSLKPEDTAVYYCNADAPYSDDYYVRFDYWGQGTQVTVSS | low polyreactivity |
| QVQLVESGGGLVQAGGRLRLSCPASGGTFYIYVMGWYRQAPGKESELVAAITSGDSTNYADSVKGRFTISRDNAKNTVYLQMNSLKPEDTAVYYCAVGITQDPLMYYPFFFHYDYWGQGTQVTVSS | low polyreactivity |
| QVQLVESGGGLVQAGGRLRLSFAASGSIFVFYVMGWYRQAHGKERELVAAISNSGSSTYYADSVKGRFTISRDNAKNTVYLQINSLKPEDTAVYYCAAEYKIPVGFDYWGQGTQVTVSS | low polyreactivity |
| QVQLVESGGGLVQAGGRLRLSFAASGSIFYRNVLGWYREAPGKERELVATISRGGTTNYADSVKGRFTISRDNAKNTVYLQMNSLKPEDTAVYYCAAPIGDVYVGKGYDSWGQGTQVTVSS | low polyreactivity |
| QVQLVESGGGLVQAGGRLRLSSAASGFIFWYYAMGWYRQEPGKERELVAAITSGGNTNYADSVKGRFTISRDNAKNTVYLQMNSLKPEDTAVYYCATGRASGREHDSWGQGTQVTVSS | low polyreactivity |
| QVQLVESGGGLVQAGGRLRLTCAASGINFRSYAMGWYRQATGKERELVAGISLSGGSTYYADSVKGRFTISRDNAKNSDYLQMNSLKPEDTAVYYCATRYHYFGALRYGYCGQGTQVTVSS | high polyreactivity |
| QVQLVESGGGLVQAGGRLRLTCAASGRIFFWYVMGWYRQATGKERELVAAISSGGRTYYADAVKGRFTISRDNAKNTVYLQMNSLKPEDTAVYYCNVEEYHVRADIGYSNYGYWGQGTQVTVSS | low polyreactivity |
| QVQLVESGGGLVQAGGRLRLTCAASGSTLPLNAMGWYRQAPGKEREFVASITYSGGNTYYADSVKGRFTISRDNAKNTVYLQMNSLKPEDTAVYYCAVDEYGIWVGWVPYATFGMNYWGQGTQVTVSS | high polyreactivity |
| QVQLVESGGGLVQAGGRLRLTCSASGFIIRFYAMGWYRQATGKEREFVASISRRAGRTYYADSVKGRFTISRDNAKNTVYLQMNSLKPEDTAVFYCAASGFGSFRYSSTYDYWGQGSQVTVSS | high polyreactivity |
| QVQLVESGGGLVQAGGRLSLSCAASGSIFEKNAIGWYIQAPGKERELFAAISSSGGRTNYADSVKGRYTISRDNAKITVYFQMNSLKPEDTAVYYCAAYRRGHRYPGYEYWGQGTQVTVSS | high polyreactivity |
| QVQLVESGGGLVQAGGRLSLSCAASGSIFRNNTMGWYRQAPGKERELVAAISGRGTPTSYADSVKGRFTISRDNAKNTVYLQMNSLKPEDTAVYYCAAVYYWRPGWYVRFDYWGQGTQVTVSS | low polyreactivity |
| QVQLVESGGGLVQAGGSHGLSCAASGSTFYYNAMGWYRPAPGKERELVARISRSGGSTYADSVKGRFTISRDNAKNTVYLLMNSLKPEDTAVYYCNADAYGTPEFTSYAVRYDHWGQGTQETVSS | low polyreactivity |
| QVQLVESGGGLVQAGGSHRLRCAASGITLLLNAMGWYRQAPGKERELVAAISEGGGSTYYAHSVKGRFTISRDNAKNTVYLQMNSLKPEDTAVYYCNADRVYRVPSEYDSWGQGTQVTVSS | low polyreactivity |
